Assay results from US20260071199A1 (JENTHERA THERAPEUTICS, published 2026).

Target: T1, CD4 on CD4+ T cells (Jurkat CD4+ T cells; human primary CD4+ T cells) (human, UniProt P01730 26-458)
T1 construct: whole, on cells; also called CD4 receptor
Test: flow cytometry, TAMRA-labelled nuclease, 1 h on Jurkat CD4+ T cells

| Binder | delivery (percent of cells TAMRA-positive) [%] |
| --- | --- |
| modified nuclease L2 (other) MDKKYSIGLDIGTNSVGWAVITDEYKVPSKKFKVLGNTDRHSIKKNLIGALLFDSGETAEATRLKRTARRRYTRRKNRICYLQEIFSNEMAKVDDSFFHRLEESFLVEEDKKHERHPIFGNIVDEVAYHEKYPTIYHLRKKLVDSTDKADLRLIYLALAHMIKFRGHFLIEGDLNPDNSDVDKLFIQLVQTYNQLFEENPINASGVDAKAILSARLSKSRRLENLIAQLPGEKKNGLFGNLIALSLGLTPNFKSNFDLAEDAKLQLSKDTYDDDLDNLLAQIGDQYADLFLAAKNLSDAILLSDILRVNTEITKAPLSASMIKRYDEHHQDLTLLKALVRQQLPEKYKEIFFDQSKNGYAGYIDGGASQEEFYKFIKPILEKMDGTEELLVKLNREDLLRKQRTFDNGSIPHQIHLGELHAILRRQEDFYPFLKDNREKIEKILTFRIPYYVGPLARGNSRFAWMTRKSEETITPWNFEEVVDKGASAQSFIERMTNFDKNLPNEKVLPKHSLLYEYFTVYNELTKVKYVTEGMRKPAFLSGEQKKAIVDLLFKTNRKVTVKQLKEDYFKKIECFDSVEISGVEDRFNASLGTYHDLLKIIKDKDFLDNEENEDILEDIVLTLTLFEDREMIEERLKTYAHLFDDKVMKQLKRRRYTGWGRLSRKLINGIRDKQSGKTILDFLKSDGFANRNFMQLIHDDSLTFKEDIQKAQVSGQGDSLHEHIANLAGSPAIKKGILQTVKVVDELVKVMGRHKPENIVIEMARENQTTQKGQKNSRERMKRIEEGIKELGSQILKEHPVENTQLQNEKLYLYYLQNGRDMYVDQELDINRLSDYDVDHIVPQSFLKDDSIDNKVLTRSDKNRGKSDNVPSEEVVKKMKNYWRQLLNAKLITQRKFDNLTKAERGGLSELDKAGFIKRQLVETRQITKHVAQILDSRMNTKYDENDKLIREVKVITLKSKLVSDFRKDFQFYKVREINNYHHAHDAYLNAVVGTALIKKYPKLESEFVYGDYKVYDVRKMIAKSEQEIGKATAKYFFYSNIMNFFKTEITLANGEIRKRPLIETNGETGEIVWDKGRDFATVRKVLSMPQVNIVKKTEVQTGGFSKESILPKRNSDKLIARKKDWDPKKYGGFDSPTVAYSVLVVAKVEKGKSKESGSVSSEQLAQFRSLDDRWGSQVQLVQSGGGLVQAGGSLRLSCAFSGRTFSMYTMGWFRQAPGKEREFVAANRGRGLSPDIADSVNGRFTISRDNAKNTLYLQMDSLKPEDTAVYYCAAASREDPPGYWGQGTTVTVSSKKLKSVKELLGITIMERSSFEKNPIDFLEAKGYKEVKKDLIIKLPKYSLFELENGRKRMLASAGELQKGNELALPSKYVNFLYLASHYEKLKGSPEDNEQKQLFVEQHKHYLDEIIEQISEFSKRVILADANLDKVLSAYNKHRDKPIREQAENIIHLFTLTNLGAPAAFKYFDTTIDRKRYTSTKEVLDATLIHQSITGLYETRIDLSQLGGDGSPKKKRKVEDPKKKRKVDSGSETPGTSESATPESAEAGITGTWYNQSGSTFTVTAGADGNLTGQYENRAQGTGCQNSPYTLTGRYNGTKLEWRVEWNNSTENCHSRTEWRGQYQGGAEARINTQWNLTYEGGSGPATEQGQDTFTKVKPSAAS | > 99 |
| modified nuclease Zero (other) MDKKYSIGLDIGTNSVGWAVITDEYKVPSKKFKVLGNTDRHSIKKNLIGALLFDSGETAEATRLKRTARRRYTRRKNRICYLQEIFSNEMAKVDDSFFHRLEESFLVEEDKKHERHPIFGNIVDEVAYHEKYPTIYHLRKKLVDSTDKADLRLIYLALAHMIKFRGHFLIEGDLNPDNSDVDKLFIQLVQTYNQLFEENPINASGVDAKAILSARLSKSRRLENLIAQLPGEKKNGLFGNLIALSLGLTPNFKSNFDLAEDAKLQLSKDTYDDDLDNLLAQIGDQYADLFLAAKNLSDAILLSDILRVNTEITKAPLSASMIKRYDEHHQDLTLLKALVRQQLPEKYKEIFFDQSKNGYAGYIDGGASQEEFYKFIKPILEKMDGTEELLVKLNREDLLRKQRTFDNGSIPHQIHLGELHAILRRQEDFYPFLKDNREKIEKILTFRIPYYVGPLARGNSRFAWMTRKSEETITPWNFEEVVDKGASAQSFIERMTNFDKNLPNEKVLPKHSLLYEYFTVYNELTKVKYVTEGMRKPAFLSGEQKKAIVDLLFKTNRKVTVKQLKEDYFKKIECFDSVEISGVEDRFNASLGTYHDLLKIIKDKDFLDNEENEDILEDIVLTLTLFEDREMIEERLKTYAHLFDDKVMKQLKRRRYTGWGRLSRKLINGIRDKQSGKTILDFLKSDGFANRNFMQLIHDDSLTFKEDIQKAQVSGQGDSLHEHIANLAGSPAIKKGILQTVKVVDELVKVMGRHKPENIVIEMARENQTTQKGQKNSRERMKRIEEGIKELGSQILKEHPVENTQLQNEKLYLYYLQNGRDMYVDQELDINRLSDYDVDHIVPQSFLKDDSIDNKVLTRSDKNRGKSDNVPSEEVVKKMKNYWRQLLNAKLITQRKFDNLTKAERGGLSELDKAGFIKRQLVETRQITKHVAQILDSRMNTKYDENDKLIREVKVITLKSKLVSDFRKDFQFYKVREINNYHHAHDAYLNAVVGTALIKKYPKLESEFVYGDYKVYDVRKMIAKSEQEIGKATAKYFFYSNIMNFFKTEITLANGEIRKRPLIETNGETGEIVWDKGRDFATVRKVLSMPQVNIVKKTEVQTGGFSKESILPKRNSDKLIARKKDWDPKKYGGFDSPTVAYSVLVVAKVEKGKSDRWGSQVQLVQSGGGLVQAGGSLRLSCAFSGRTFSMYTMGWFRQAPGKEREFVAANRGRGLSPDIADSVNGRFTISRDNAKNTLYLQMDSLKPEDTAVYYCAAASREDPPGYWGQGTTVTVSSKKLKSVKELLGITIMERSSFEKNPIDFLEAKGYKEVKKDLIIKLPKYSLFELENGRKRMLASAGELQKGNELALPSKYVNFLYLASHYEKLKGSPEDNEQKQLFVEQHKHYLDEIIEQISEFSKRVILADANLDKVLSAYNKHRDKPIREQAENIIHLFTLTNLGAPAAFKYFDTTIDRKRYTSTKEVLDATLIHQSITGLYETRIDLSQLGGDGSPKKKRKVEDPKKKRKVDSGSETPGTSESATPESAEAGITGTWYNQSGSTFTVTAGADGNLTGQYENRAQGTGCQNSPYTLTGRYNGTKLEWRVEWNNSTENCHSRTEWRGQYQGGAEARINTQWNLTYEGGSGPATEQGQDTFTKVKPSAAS | > 99 |
| modified nuclease L1 (other) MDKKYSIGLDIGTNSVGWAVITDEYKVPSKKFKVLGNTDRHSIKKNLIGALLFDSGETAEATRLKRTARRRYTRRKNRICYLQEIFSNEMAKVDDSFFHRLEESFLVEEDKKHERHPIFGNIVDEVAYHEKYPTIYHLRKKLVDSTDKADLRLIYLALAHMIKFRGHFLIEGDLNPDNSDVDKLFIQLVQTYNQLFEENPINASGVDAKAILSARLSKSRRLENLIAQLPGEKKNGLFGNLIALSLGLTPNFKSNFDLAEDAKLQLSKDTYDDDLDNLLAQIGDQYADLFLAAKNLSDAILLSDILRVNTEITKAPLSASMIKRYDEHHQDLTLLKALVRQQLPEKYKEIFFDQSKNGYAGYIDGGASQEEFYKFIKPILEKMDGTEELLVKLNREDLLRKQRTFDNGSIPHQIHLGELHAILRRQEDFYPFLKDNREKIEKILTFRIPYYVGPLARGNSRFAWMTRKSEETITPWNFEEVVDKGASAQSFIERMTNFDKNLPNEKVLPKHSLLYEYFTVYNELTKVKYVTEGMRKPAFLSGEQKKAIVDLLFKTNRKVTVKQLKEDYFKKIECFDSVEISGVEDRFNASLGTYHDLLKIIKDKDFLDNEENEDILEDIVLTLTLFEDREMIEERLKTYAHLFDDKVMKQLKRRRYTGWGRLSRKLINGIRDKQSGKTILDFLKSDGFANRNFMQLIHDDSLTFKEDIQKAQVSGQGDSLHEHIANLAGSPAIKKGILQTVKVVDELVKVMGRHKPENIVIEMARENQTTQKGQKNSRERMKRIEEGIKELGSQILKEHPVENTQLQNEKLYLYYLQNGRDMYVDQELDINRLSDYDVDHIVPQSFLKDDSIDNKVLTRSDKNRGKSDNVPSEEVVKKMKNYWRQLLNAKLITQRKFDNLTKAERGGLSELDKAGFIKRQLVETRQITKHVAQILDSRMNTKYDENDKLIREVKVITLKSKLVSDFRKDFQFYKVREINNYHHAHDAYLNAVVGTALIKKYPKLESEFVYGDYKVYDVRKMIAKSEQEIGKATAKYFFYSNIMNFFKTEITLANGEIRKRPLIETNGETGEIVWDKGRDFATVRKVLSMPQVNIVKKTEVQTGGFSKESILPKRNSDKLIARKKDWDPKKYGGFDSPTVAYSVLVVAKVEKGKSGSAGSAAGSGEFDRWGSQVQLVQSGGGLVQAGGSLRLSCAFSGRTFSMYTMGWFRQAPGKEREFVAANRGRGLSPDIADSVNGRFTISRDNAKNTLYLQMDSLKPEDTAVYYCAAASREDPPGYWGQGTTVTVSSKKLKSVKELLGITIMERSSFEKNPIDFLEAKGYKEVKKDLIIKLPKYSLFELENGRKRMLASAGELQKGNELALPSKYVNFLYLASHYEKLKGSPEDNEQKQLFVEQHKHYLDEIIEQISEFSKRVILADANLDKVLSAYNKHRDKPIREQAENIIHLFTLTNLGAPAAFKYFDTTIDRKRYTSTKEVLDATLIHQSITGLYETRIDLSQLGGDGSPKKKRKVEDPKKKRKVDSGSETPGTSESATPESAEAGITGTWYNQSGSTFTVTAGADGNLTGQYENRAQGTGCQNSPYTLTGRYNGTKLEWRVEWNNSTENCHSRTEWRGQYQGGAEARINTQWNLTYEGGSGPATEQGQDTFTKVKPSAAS | > 99 |
